Measurements: patent US20250326818A1 (UNIVERSIT T BASEL, published 2025)

Target: T1, CD123 ECD wt (human, UniProt P26951 19-305)
T1 construct: Recombinant extracellular domain; Biotinylated when captured for the hIL3 assay; also called CD123_WT; recombinant wildtype CD123
T1 sequence: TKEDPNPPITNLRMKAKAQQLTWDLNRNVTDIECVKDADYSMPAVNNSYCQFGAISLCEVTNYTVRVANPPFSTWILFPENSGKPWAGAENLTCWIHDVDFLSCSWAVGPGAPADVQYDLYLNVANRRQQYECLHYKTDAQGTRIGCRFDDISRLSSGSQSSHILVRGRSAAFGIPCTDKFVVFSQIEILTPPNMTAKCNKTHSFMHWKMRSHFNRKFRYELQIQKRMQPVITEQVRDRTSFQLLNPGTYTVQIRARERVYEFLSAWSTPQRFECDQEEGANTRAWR
Assay: BLI (Octet), flotetuzumab hIgG1 captured on anti-human Fc tips, CD123 ECD as analyte, level at 250 s
Experimental: Antibody flotetuzumab hIgG1 was captured by Anti-Human Fc capture biosensor (AHC) (Sartorius, PN: 18-5060) for 300 s at 0.5 μg/mL. Analytes CD123 ECD wt and variants (only CD123 ECD variants at high analyte concentrations) were titrated at 7 concentrations from 50 nM to 0.78 nM or 300 nM to 4.7 nM, respectively. Association to analyte was monitored for 300 s and dissociation for 600 s (CD123 wt) and 900 s (CD123 variants). Double reference subtraction was performed against buffer only well and biosensor loaded with a negative hIgG1 control. Regeneration was performed in 10 mM Gly-HCl pH 1.7. Data were analyzed using the Octet Data Analysis software HT

B1: Flotetuzumab hIgG1 (antibody, V domains shown)
VH: EVQLVQSGAELKKPGASVKVSCKASGYTFTDYYMKWVRQAPGQGLEWIGDIIPSNGATFYNQKFKGRVTITVDKSTSTAYMELSSLRSEDTAVYYCARSHLLRASWFAYWGQGTLVTVSS
VL: DFVMTQSPDSLAVSLGERVTMSCKSSQSLLNSGNQKNYLTWYQQKPGQPPKLLIYWASTRESGVPDRFSGSGSGTDFTLTISSLQAEDVAVYYCQNDYSYPYTFGQGTKLEIK
notes: Tested as hIgG1 in BLI; also called Anti-CD123 antibody (Flotetuzumab)
binding result: binds
